# Columns and labels:
# [1] = molecular target: membrane receptor interacting with BLV (unknown) (human); test: flow cytometry, tagged RBD on sputum neutrophils of one CF patient
# [2] = molecular target: membrane receptor interacting with BLV (unknown) (human); test: flow cytometry, tagged RBD on blood neutrophils of one CF patient
substance,measurement,setting,value
Bovine Leukaemia Virus receptor-binding domain (BLV RBD) (from UniProt P25507 34-215),deltaGeomean of fluorescence,[1],140
same,deltaGeomean of fluorescence,[2],0

# From patent US20130260394A1
